This is an account of results in US5851983A, “Elastase inhibitory polypeptide and process for production thereof by recombinant gene technology” (Teijin Limited, priority 1987, dated 1998).

Common to all, as to type: biochemical
For assay [1], the target named is T1, polymorphonuclear leucocyte elastase from human sputum (Homo sapiens, UniProt P08246).
T1 construct: Polymorphonuclear leukocyte elastase from human sputum (EPC Co; Funakoshi Yakuhin); purchased EPC Co. (via Funakoshi Yakuhin); host or cells: human sputum
T1 sequence (P08246 30-267): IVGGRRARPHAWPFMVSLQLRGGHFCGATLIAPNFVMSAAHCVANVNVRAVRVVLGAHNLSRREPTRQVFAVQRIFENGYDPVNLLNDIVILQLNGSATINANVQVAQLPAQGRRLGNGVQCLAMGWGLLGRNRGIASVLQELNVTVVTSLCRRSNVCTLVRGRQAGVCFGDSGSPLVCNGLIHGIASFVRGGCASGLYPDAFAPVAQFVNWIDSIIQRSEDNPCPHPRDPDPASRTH
The assay can be described thus: Assay for elastase inhibitor activity (Example 24). As to conditions: enzyme 2 × 10^-8 M, substrate 3.0 × 10^-4 M. How it is done:
(§1) The following assay method was used.
(§2) Buffer: 0.1M (2-hydroxyethyl)piperazine-N'-2-ethansulfonic acid (HEPES), 0.5M NaCl, pH 7.5.
(§3) Enzyme concentration: the following enzyme was dissolved in the above-mentioned buffer to a concentration 9 times that shown in Table 12.
(§4) A. Polymorphonuclear leucocyte elastase from human sputum (EPC Co., Funakoshi Yakuhin)
Substrate solution: for the enzymes A, B, C, D and E, the following substrate a, b, c, d or e, respectively, was dissolved in a solution of DMSO+the above-mentioned buffer (1:9) (note, final concentration of DMSO was 10% in the buffer) to a concentration of 9 times that shown in Table 12.
(§5) a. MeO-Suc-Ala-Ala-Pro-Val-pNA (Bachem) […]
(§6) To wells of an ELISA 96-well microtiter plate, were added 120 μl of the buffer and the 20 μl of a sample solution of (Arg^59 -Ala^107) SLPI obtained in Example 23, followed by 20 μl of the enzyme solution. The mixture was reacted at 37° C. for 10 minutes. Next, 20 μl of the substrate was added, and developed at 37° C. The developed color was measured by absorption at 405 nm.
(§7) As a control the same procedure was carried out using SLPI.

Another assay concerns the target T2, Bovine spleen trypsin (Bos taurus, UniProt P00760).
T2 construct: purchased Sigma
T2 sequence (P00760 24-246): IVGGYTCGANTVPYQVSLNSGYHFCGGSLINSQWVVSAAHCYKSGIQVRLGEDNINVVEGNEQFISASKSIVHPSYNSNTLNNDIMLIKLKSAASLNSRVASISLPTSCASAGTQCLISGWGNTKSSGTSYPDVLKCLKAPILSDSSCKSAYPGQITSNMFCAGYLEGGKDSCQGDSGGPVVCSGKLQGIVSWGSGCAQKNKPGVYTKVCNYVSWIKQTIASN
Description: Assay for trypsin inhibitor activity (Example 24). As to conditions: enzyme 2 × 10^-7 M, substrate 1.0 × 10^-3 M. The protocol:
as §1, §2, §3
B. Bovine spleen trypsin (Sigma)
Substrate solution: for the enzymes A, B, C, D and E, the following substrate a, b, c, d or e, respectively, was dissolved in a solution of DMSO+the above-mentioned buffer (1:9) (note, final concentration of DMSO was 10% in the buffer) to a concentration of 9 times that shown in Table 12. […]
as §6, §7

For assay [2], the target named is T3, Human plasma thrombin (Homo sapiens, UniProt P00734).
T3 construct: (5) Human plasma thrombin (Kabi, Daiichi Kagaku Yakuhin); purchased Kabi (via Daiichi Kagaku Yakuhin); host or cells: human plasma
Description: Assay for thrombin inhibitory activity (Example 25). As to conditions: final concentration up to ×10^-5 M; enzyme 3 × 10^-9 M. How it is done:
F. Human plasma thrombin (Sigma)
(§8) Buffer: Buffer solution for each enzyme is as follow. Thrombin and FXa: 50 mM Tris-HCl, 7.5 mM EDTA-2Na, 175 mM NaCl (pH 8.4) […]
(§9) Substrate solution: for the enzymes F, G, H and I, the following substrate f, g, h or i, respectively, was dissolved to a final concentration shown in Table 14.
f. H.D-Phe-Pip-Arg-pNA (Kabi Vitrum)
(§10) To wells of an ELISA 96-well microtiter plate, were added a solution of (Arg^59 -Ala^107) SLPI obtained in Example 23 and then the enzyme solution, and the mixture was incubated at 37° C. for 10 minutes. Next, the substrate solution was added to develop the color, whose absorption was then measured at 405 nm. As a control, SLPI was used.

Assay [3] has as its target T4, Human plasma plasmin (Homo sapiens, UniProt P00747).
T4 construct: (6) Human plasma plasmin (Kabi, Daiichi Kagaku Yakuhin); purchased Kabi (via Daiichi Kagaku Yakuhin); host or cells: human plasma
Description: Assay for plasmin inhibitory activity (Example 25). To be noted: final concentration up to ×10^-5 M; enzyme 1.0 × 10^-7 M. The protocol: G. Human plasma plasmin (sigma)
Plasmin: 50 mM Tris-HCl, 100 mM NaCl (pH 7.4) […]
as §9
g. H.D-Val-Leu-Lys-pNA (Kabi Vitrum)
as §10

For assay [4], the target named is T5, Human plasma kallikrein (Homo sapiens, UniProt P03952).
T5 construct: (7) Human plasma kallikrein (Kabi, Daiichi Kagaku Yakuhin); purchased Kabi (via Daiichi Kagaku Yakuhin); host or cells: human plasma
The assay can be described thus: Assay for kallikrein inhibitory activity (Example 25). To be noted: final concentration up to ×10^-5 M; enzyme 1.0 × 10^-7 M. The protocol:
H. Human plasma kallikrein (Protogene, Funakoshi Yakuhin)
Kallikrein: 50 mM Tris-HCl, 361 mM NaCl, 0.01 mg/ml polybrene (pH 7.8) […]
as §9
h. H.D-Pro-Phe-Arg-pNA (Kabi Vitram)
as §10

The next assay deals with Porcine FXa. Description: Assay for Fxa inhibitory activity (Example 25). As to conditions: final concentration up to ×10^-5 M; enzyme 1.0 × 10^-8 M. How it is done:
I. Porcine FXa (Daichi Seiyaku)
as §8, §9
i. Ratio 1:1 mixture of the following compounds: [drawing 5]
as §10

The test system of assay [5] is polymorphonuclear leucocyte elastase from human sputum. The assay can be described thus: Inhibitory constant (Ki) assay, elastase (Example 26). To be noted: from Table 16. How it is done: Method for assay is as follow.
Buffer: 0.1M N-(2-hydroxyethyl)piperazine-N'-2-ethanesulfonic acid (HEPES), 1.0M NaCl, 0.1% polyethylene glycol (pH 7.5)
Enzyme solution: the following enzyme was dissolved in the above-mentioned buffer to a concentration 9 times that shown in Table 15.
as §4
Substrate solution: for the enzymes A and B, the following substrate a or b was dissolved in a solution of DMSO+the above-mentioned buffer (1:9), or in DMSO, respectively.
as §5
To wells of an ELISA 96-well microtiter plate, were added 120 μl of the buffer, 20 μl of a sample solution of (Arg^59 -Ala^107) SLPI obtained in Example 23, and 20 μl of the enzyme solution in this order, an the mixture was reacted at 37° C. for 1 hour. Next, 20 μl of the substrate was added to develop at 25° C. Absorption of the developed color was measured at 405 nm. As a control, SLPI was used.
On the basis of the result thus obtained, an inhibitory constant (Ki) of (Arg^59 -Ala^107) SLPI of the present invention was calculated according to the method of Henderson (Henderson, P. J. F. (1972), Biochem. J. 127, 321-333).

Assay [6] concerns the target T6, polymorphonuclear leukocyte elastase from human sputum (Homo sapiens, UniProt P08246).
T6 construct: Polymorphonuclear leukocyte elastase from human sputum (EPC Co; Funakoshi Yakuhin); purchased EPC Co. (via Funakoshi Yakuhin); host or cells: human sputum
T6 sequence (P08246 30-267): T1 sequence (P08246 30-267)
Description: Serine protease inhibitory assay, Example 12: human elastase. As to conditions: read-out: concentration of inhibitory protein which exhibits a 50% inhibition; enzyme 10^-9 M; MeO-Suc-Ala-Ala-Pro-Val-pNA 0.3 mM; 37° C. How it is done: (§11) To each well of a 96-well ELISA microplate were added 140 μl of the above-mentioned buffer, 20 μl of a test solution, and 20 μl of the enzyme solution, and the mixture was stirred at 37° C. for 30 minutes. Next, 20 μl of the substrate solution was added to the well, the mixture was stirred at 37° C. for one hour to develop same, and the absorbance at 405 nm was measured.

The target of the next assay is T7, Calf pancreatic trypsin (Bos taurus, UniProt P00760).
T7 construct: (2) Calf pancreatic trypsin (Sigma); purchased Sigma; host or cells: calf pancreas
T7 sequence (P00760 24-246): T2 sequence (P00760 24-246)
The assay can be described thus: Serine protease inhibitory assay, Example 12: trypsin. As to conditions: read-out: concentration of inhibitory protein which exhibits a 50% inhibition; enzyme 10^-7 M; Bz-Arg-pNA 1.0 mM; 37° C. How it is done: (§12) Assay of serine protease inhibitory activity of active-type (Asn^55 -Ala^107) SLPI fragment polypeptide
(§13) The active-type (Asn^55 -Ala^107) SLPI fragment polypeptide obtained by refolding by the procedure shown in Example 11 as measured to determine its inhibitory activity to various serine proteases. The assay result thereof is shown as follows.
(§14) Enzyme solution: The following enzymes were dissolved in the above-mentioned buffer solutions at a concentration ten-times higher than the concentration shown in Table 4.
(2) Calf pancreatic trypsin (Sigma)
(§15) Substrate solution: For the above-mentioned enzymes (1) to (7), the following substrates (1) to (7), respectively, were dissolved in dimethyl sulfoxyde to a concentration of 10 mM to prepare stock solutions, which were then dissolved in the above-mentioned buffer solution to concentration ten-times higher than final concentrations, to prepare substrate solutions. […]
as §11
Moreover, an inhibitory constant Ki of the present (Asn^55 -Ala^107) SLPI was calculated on the basis of the above data by a method of Dixon, M. and Webb, E. C. (1979), Enzyme, Longman or a method of Henderson, P. J. F. (1972) Biochem. J., 127, 321-333.

Assay [7] has as its target T8, Calf pancreatic chymotrypsin (Bos taurus, UniProt P00766).
T8 construct: (3) Calf pancreatic chymotrypsin (Sigma); purchased Sigma; host or cells: calf pancreas
The assay can be described thus: Serine protease inhibitory assay, Example 12: chymotrypsin. To be noted: read-out: concentration of inhibitory protein which exhibits a 50% inhibition; enzyme 10^-8 M; Suc-Ala-Ala-Pro-Phe-pNA 0.1 mM; 37° C. How it is done: as §12, §13, §14
(3) Calf pancreatic chymotrypsin (Sigma)
as §15, §11

Assay [8] has as its target T9, Porcine pancreatic elastase (Sus scrofa, UniProt P00772).
T9 construct: (4) Porcine pancreatic elastase (Sigma); purchased Sigma; host or cells: porcine pancreas
Description: Serine protease inhibitory assay, Example 12: porcine elastase. As to conditions: read-out: concentration of inhibitory protein which exhibits a 50% inhibition; enzyme 6 × 10^-9 M; Suc-Ala-Ala-Ala-pNA 0.1 mM; 37° C. The protocol: as §12, §13, §14
(4) Porcine pancreatic elastase (Sigma)
as §15, §11

Assay [9] concerns the target T3, Human plasma thrombin. The assay can be described thus: Serine protease inhibitory assay, Example 12: thrombin. To be noted: read-out: concentration of inhibitory protein which exhibits a 50% inhibition; enzyme 10^-11 M; H-D-Phe-Pip-Arg-pNA 0.1 mM; 37° C. The protocol: as §12, §13, §14
(5) Human plasma thrombin (Kabi, Daiichi Kagaku Yakuhin)
as §15, §11

The target of assay [10] is T4, Human plasma plasmin. The assay can be described thus: Serine protease inhibitory assay, Example 12: plasmin. To be noted: read-out: concentration of inhibitory protein which exhibits a 50% inhibition; enzyme 10^-8 M; H-D-Val-Leu-Lys-pNA 0.1 mM; 37° C. The protocol:
as §12, §13, §14
(6) Human plasma plasmin (Kabi, Daiichi Kagaku Yakuhin)
as §15, §11

Assay [11] concerns the target T5, Human plasma kallikrein. Description: Serine protease inhibitory assay, Example 12: kallikrein. To be noted: read-out: concentration of inhibitory protein which exhibits a 50% inhibition; enzyme 10^-8 M; H-D-Pro-Phe-Arg-pNA 0.1 mM; 37° C. How it is done: as §12, §13, §14
(7) Human plasma kallikrein (Kabi, Daiichi Kagaku Yakuhin)
as §15, §11

T4 sequence (P00747 581-810 limits assumed): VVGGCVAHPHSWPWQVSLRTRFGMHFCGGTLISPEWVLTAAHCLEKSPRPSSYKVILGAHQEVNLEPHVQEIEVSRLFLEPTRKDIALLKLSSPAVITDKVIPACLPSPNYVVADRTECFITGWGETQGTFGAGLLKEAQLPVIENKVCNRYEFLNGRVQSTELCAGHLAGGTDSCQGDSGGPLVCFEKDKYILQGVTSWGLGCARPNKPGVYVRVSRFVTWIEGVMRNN
T4 sequence (P00747 97-580 partner limits assumed): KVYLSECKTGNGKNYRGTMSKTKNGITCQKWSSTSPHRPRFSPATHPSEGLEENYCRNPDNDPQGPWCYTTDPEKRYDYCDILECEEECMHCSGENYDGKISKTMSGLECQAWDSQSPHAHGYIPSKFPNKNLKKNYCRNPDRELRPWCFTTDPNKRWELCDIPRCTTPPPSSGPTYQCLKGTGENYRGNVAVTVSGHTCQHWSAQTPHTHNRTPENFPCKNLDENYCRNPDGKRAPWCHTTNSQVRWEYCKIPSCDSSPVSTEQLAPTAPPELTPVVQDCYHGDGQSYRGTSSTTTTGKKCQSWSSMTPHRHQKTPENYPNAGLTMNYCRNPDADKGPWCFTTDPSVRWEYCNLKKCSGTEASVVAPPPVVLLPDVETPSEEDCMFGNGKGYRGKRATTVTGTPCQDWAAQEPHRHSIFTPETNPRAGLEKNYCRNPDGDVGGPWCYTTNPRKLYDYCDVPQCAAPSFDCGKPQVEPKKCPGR
T5 sequence (P03952 391-638 limits assumed): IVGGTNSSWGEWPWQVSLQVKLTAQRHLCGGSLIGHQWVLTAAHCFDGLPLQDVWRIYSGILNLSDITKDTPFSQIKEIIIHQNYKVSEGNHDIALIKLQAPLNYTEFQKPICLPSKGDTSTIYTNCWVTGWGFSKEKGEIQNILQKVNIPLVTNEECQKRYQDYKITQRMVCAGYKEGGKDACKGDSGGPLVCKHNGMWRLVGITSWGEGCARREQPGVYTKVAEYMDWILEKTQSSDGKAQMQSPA
T5 sequence (P03952 20-390 partner limits assumed): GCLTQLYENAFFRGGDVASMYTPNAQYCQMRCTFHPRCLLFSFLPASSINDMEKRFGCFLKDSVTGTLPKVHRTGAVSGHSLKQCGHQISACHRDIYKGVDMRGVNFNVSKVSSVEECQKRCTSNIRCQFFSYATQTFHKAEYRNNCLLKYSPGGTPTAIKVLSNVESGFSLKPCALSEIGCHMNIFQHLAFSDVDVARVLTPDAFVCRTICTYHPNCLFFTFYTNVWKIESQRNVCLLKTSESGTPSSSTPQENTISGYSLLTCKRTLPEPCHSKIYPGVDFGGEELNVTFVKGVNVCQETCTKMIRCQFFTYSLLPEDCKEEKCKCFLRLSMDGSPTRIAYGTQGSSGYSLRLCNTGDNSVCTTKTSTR
T9 sequence (P00772 27-266): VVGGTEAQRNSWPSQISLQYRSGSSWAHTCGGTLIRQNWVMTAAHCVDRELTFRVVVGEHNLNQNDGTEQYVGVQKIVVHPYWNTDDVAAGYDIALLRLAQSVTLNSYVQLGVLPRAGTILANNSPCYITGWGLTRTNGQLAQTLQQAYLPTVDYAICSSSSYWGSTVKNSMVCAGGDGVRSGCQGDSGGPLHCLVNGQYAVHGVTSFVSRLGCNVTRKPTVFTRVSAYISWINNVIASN

As for “(Arg^59 -Ala^107) SLPI: polypeptide having an amino acid sequence starting with the 59th Arg and ending at the 107th Ala of SLPI (RKPGKCPVTYGQCLMLNPPNFCEMDGQCKRDLKCCMGMCGKSCVSPVKA)”, the values for the IC50 (in [1]; with Bovine spleen trypsin) were 12 nM and 2000 nM, respectively. Moreover, in the assay with Human plasma thrombin [2], the “inhibitory activity to thrombin” value is recorded as “did not exhibit inhibitory activity”. The “inhibitory activity to plasmin” value with Human plasma plasmin [3] is “did not exhibit inhibitory activity”. Also, the “inhibitory activity to kallikrein” value in the assay with Human plasma kallikrein [4] was “did not exhibit inhibitory activity”. In addition, in the assay with Porcine FXa, the “inhibitory activity to FXa” value is listed as “did not exhibit inhibitory activity”. The “relative ratio of inhibitory activity on trypsin to that on elastase (Ki(T)/Ki(E))” value in [5] is on record as “about 14,000”.

With Aprotinin, the IC50 is 300 nM in assay [6]; 100 nM on Calf pancreatic trypsin; 50 nM in [7]; over 2000 nM in assay [8]; over 2000 nM on Human plasma thrombin [9]; 5 nM on Human plasma plasmin [10]. The IC50 on Human plasma kallikrein [11] stood at 70 nM.

In the case of “α1 -PI: α1 -AT (Sigma), inhibitory protein used as a positive control”, the IC50 is 200 nM in the assay with Calf pancreatic trypsin; 2000 nM in assay [7]; 300 nM in assay [8]; over 2000 nM in the assay with Human plasma thrombin [9]; over 2000 nM in the assay with Human plasma plasmin [10]; over 2000 nM with Human plasma kallikrein [11].
